These results are taken from publication PMC3438448.

The target of one test is axonemal microtubules. The test can be described thus: single-molecule microtubule release assay (TIRF); as a6, perfused with 5 mM ATP in the presence of 800 nM Lis1; durations of attachment fitted by a one-phase exponential decay.
Test [1] concerns the target microtubules (taxol-stabilized, α/β-tubulin) (UniProt P02554).

Sequence of microtubules (taxol-stabilized, α/β-tubulin) (chain, as listed by the source, chain 1 of 2): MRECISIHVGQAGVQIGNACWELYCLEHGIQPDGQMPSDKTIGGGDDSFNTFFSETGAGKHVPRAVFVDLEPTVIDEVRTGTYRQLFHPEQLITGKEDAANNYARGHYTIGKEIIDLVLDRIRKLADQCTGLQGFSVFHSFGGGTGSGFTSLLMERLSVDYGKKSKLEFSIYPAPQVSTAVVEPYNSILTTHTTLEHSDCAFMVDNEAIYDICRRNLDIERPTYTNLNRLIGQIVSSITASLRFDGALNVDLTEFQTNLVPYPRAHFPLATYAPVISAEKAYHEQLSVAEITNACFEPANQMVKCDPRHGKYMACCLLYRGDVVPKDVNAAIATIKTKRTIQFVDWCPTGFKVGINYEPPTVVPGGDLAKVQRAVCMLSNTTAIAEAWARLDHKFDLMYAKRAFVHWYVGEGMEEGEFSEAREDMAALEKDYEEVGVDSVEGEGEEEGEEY
Sequence of microtubules (taxol-stabilized, α/β-tubulin) (P02554 whole entry, chain 2 of 2): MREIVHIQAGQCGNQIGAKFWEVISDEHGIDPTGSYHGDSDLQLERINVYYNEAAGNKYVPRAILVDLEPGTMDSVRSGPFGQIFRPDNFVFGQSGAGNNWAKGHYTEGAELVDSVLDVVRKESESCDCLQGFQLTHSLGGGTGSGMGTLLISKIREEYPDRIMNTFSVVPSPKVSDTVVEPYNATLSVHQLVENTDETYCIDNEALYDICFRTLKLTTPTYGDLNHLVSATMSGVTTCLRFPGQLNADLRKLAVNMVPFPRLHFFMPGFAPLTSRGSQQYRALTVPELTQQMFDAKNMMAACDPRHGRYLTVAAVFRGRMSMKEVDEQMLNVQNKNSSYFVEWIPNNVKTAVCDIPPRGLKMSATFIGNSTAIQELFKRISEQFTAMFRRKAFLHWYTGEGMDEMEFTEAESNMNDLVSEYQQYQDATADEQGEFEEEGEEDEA

In the case of “monomeric dynein_(331 kDa) (domain or fragment)”, in the test with axonemal microtubules, the off-rate (decay constant) of microtubule attachments after ATP addition, with 800 nM Lis1 and 5 mM ATP worked out at 0.162 s⁻¹; the off-rate (decay constant) of rebinding events, with Lis1 and ATP was found to be 0.23 s⁻¹.
Regarding GST-dynein_(331 kDa), P36022 1-4092, in test [1], the Km(MT) of the microtubule-stimulated ATPase activity, with 140 nM Lis1 was determined as 0.2 µM and the Km(MT) of the microtubule-stimulated ATPase activity, without Lis1 was 0.09 µM.
